Measurements: article PMC3514331, “Structure-function analysis of Methanobacterium thermoautotrophicum RNA ligase – engineering a thermostable ATP independent enzyme” (BMC Molecular Biology, 2012)
Changes are numbered by the printed parent chain. Numbers in names are those of the source.

B1: MthRnl (Methanobacterium thermoautotrophicum RNA ligase) (Methanothermobacter thermautotrophicus str. Delta H) (protein)
chain: MNSMNSDIPFDLIQERTGVPSSRLKVAFARGSLRLLESAGMQALLFKKPLGDLEAGTVIYLGDETEVIRGFPKIRRTLLLSPTIQEHFRDRVAVEEKMNGYNVRIACLSSGETVALTRGGHVCPFTTRKAQELLDLSEFFREHPDLVICGEMIGRDNPYVSQDYPEVGPLGFRVFDLREKNTNRPLPVEERRALLDSYGLPNVRLFGVYPIEEAASEVADIIRALGMAGREGVVMKDPSMEVPPLKYTSSQAHARELAYAFSYPFDFGRPFFFSRVIREGFQAYELDESDDETRERARRLGEAIIYPMLERIKSISAGEAAYEDTVIDVEDREAAEEFIRHLVRLGVSATLADYRDGRATIRRFYQSTTDRINNYLKGGLY
notes: full-length codon-optimized ORF, N-terminal His10 tag (pET16b), expressed in E. coli, tag cleavage not mentioned; homodimer, about 46 kDa per monomer (10 pmol = 460 ng)
B2: MthRnl (Methanobacterium thermoautotrophicum RNA ligase) (Methanothermobacter thermautotrophicus str. Delta H; K246A) (protein)
chain: B1 chain with K246A
notes: as for B1

Substrate: Nc1ncnc2c1ncn2[C@@H]1O[C@H](COP(=O)(O)OP(=O)(O)OP(=O)(O)O)[C@@H](O)[C@H]1O
Experiment: purified protein
Format: biochemical, Methanothermobacter thermautotrophicus
Details: 10 mM Mg2+, 30 min, covalent enzyme-AMP formation, labelled compound

Protein	Km (10 mM bis-Tris propane pH 7.0, 65°C) [µM]	Km (10 mM bis-Tris propane pH 8.5, 65°C) [µM]
B1	0.9	
B2		60
